In a protein production outcome set (Wang et al. 2014):

Test: label from the status in PepcDB records

Sequence | protein production
MARLGKKSRNGAFWAKALERAHLGVWDWDLRSGDCFYSATWARMLGYEEDELANTSDLWLQLTHPDDRERALASGDRHIAGLTDAIETELRLKHKLGHWVWVLDRGGIVESGADGRPLRLMGVQTDISKQKAAEAALEQVTMRFRLALAASGTGIWHYDIATHKSYWDARTREMFGVVADADEVAADLWHSFLHPDDKEATERAHWPSPGSNGVTASQYRIVKRDGEIRHIESLVRYVAAAGAAGQILGTVRDITEDKLREQELAFAARHDALTGLWNRAAFDRLLADHIAKGVPLAVFYVDLDYFKALNDFAGHAAGDLALKSVAAGIGRCLPPSAHAARLGGDEFALLVPHCDAAQAERLAAAILAAVRSADLGLAATARRLAASIGIAIVNDRATTVADALACADDACYAAKAAGRDRFAVFSAEAATGGLNAARLAADTVDAMEDGRLKLFGQEIHRLGRPWQENRHVEVLARLVGRGGKLIPPSEFIPAAERFGIAARLDRWIIRTALSRHGAAMKSGAITLGFNLSAQTLSDPGLWDFVDSIIEETGAPHSGIGFEITETAAVTNFDAAETFVRKARERRCKVSLDDFGAGMSSFEYLRRFPVDAIKIDGSFIEHMAESRFDREIVSAISGIARSVGCTVVAEKIEQAETLGILQTMGVDFGQGFLLHRPEPLEQIVARAAGPARAAPARKAS | failed
SARHFGMALAPWDVMGGGRFQSKKAMEERRKNGEGIRSFVGASEQTDAEIKISEALAKIAEEHGTESVTAIAIAYVRSKAKNFFPSVEGGKIEDLKENIKALSIDLTPDNIKYLESIVPFDIGFPNNFIVLNSLTQKYGTNNV | not failed
SERRYKQLFDSGRDGIFVVQMDEEEGVAQIVEANWSAHEMFGYSQGAFEELAFASLVDKGEREGVERLLKELPLKGGALIESHFVLLEHRSIPIELSIQSFLLEEKRTLYVSARDIT | failed
MTQMRMPTSPTRPATAWPLYALPSPGEAIRQFTPNWFAVTMGTGILSLVLGQLPWPVPGAALLGAGLWRCNVGLFVVFSALYLARWALYPHEARRILAHPTASMFLGTIPMGLATLINGLLLYGLPRWGAAVIPVATALWWMDAAMALACGVLVPYLMFTRQQHRMEQMTALWLLPVVAAEVAAASAGALAPHLADAGSRFGMLVAGYVLWAYSVPVALGILVILWLRMALHQLPQASMAASSWLALGPIGTGALGMLVFAGDAPALFAAHGMGTIGQAAAGCGLIAGLLLWGLGLWWLALAILITARYFADKVPFNLGWWGFTFPLGVYALATLKLGAALQMQVFDVVGSVLVLLLCVTWTIVAARTAAGAYRGTLFVAPCLVESSEHAPAR | failed
MKSLYQMNHIGHPFMYPKMDITKMNKTNNQNIPNKAHNPNNSSNMNTTKKSYGTSLNYIKKENSSKNSIYNNYEYLDASHLEMLDLNKNIKNILPKPMKPSLDLESLCKETTSTMKKSKMHCMKSGENQNKNVKHFYEMGTPQIIGTYIQPLHHNTNSFNQNNFPKNHMFPLLPSSPFFQPPNFRTNLTQASSTFIPLPHANKSTNIYGMPSYLIPENKPQNLTVTVVPNKDKDSIEKEAKHLKALLDSSSKGIVNSTPDYQKIQPSTLSNYNDKESDFSFGKNDNYEHAEYSEQNCNDENDTENNYNSFVNEFYDPHNSISYNNVNEFLKNSNQKNQQHAFRLESNEEVARKVHKEFTYPKGTSLNKINILNQNYKEEGEQQQENETKNNMNMQERDEERQTMKKDSSIPKRTQLSKKKEHNNNNIVLKKHEPSTCFKNPKTYINIRLGKPKKLYITNSSDPIDKKLSEWHNTHNSQIGWKKYRRGVYTFGKTEVILSLVHDKIIVKKINGKHIKDNLLTVEKFVSLNELYEIQQEENDNMLKKRGVKFFNF | failed
MLSYDIEVLKIINDEDNISQRRLAEMLNISLGKINSLLKELLTKEYIVKIDIDKRNVKYELTEAGIALLENSLDKVKSTKLSIHKHKFHKVKQAVILGAGGKGDFGKPAGFLELEEFRIIDRIIDILKSNGIEKIVIVNGYKKEYYEELAEKDSTIFCVTNSNYKWTGTMSSLALAKEYIDDDFILVENDLVFESRAVEQIIKNDNRDCVLITNESGSGDEAFVEIRDGYLFKMSKDVHQFNKIDGEMIGISKISYKLFKMMLEEFKHNINPYMNYEYTMLDVARNYKVGYEKINDLVWGEIDNKDQYEKVKKHIIPMIRRKEMQYKIDQVKSAIVNGLKVSEEEVKEIVPVGGMTNKNYKAFVNDKAYIVRIPGLGTSSMINRRDEMINSKLAADEGIDAKILFFDEESGVKIAELIEGAETLNPATAKKKENMELVVGALRTLHNSEIKMENRFNVFEKIEDYESLVKKVSGTLFEDYYEIKTRVLKLEKVLEDNGMEIKPCHNDTVPENFVKDINERMYLIDWEYSGLNDPMWDLAAHSIECDFSEDDEELFLNLYFNNLIEDKHKIRILVYKICQDFLWSIWTILKEAQGDDFGTYGIDRYNRGKKNLELLDKILMGQ | failed
MRRRDPSRKMILRMSHVVRRLRPDGIVELRPRDVRVERPEWYLGAYTTFLVSGALFISTAVPAQLVAITFLGCLLGEVCFGLRALVALRRPLAEVEVLAPMRRVR | failed
MGHFDTPSLSRDAALLPDTGEPGFGVYVHWPFCAAKCPYCDFNSHVRHQPVDQERFAAAFLKEMAAVRAMSGPKTVTSIFLGGGTPSLMKPETVSAILDGIARHWHVPAGIEITMEANPSSVEAERFRGYRAAGVNRVSLGVQALNDRDLKFLGRLHDVADALKAIRLAREIFPRMSFDLIYARPDQTVDEWEKELKEAISYAVDHLSLYQLTIEEGTPFFGLHKSGKLIVPDGEQSALLYEATQEITAREGMPAYEVSNHARPGAESRHNLTYWRYGDYAGIGPGAHGRLTRGHEKLATATERKPEAWLEMVERDGHGILDEERLGFEEQSDELLLMGLRLREGVDLARWQQLSGRELDPKREEFLLEHKFIERIGNSRLRCTSAGMLILDSVVADLAC | failed
MTAFRQRPLRLGHRGAPLKAKENTLESFRLALEAGLDGVELDVWPTRDGVFAVRHDPDTPLGPVFQVDYADLKAQEPDLPRLEEVLALKEAFPQAVFNVELKSFPGLGEEAARRLAALLRGREGVWVSSFDPLALLALRKAAPGLPLGFLMAEDHSALLPCLGVEAVHPHHALVTEEAVAGWRKRGLFVVAWTVNEEGEARRLLALGLDGLIGDRPEVLLPLGG | not failed
MSLNIKEASEKSGVSADTIRYYERIGLIPPIHRNESGVRKFGAEDLRWILFTRQMRRAGLSIEALIDYLALFREGEHTLEARAELLKKQRIELKNRIDVMQEALDRLDFKIDNYDTHLIPAQEELKDFNVERSNEGHHHHHH | not failed
MSNPNEDSPMILQRIFALALLAMCAALAVMAWPYQAAFSYEPVGPRAYPLLVLGLMGLGLLYLVFRPTPIVRKDDEPELDRETLIKITACVGLLIVFAATFEALGFILSAILVGLPMARLYGGRWLQSAIVVAGMSIFLYWLFDRVMDVPLPLGLLSVLEN | failed
MAAERKTKLSKNLLRMKFMQRGLDSETKKQLEEEEKKIISEEHWYLDLPELKEKESFIIEEQSFLLCEDLLYGRMSFRGFNPEVEKLMLQMNAKHKAEEVEDETVELDVSDEEMARRYETLVGTIGKKFARKRDHANYEEDENGDITPIKAKKMFLKPQD | not failed
MTYEIVIAGFGGQGVLSMGKILAYSGLMEDKEVSWMPSYGPEQRGGTSNVTVIVSDEQVSSPVLNEYDIVIVLNQPSLDKFEARVKKGGILVYDPDSIVLKNKRDDIQIYEVDATQESLRMGNQK | failed
MGSGGVVHCRCAKCFCYPTKRRIRRRPRNLTILSLPEDVLFHILKWLSVEDILAVRAVHSQLKDLVDNHASVWACASFQELWPSPGNLKLFERAAEKGNFEAAVKLGIAYLYNEGLSVSDEARAEVNGLKASRFFSLAERLNVGAAPFIWLFIRPPWSVSGSCCKAVVHESLRAECQLQRTHKASILHCLGRVLSLFEDEEKQQQAHDLFEEAAHQGCLTSSYLLWESDRRTDVSDPGRCLHSFRKLRDYAAKGCWEAQLSLAKACANANQLGLEVRASSEIVCQLFQASQAVSKQQVFSVQKGLNDTMRYILIDWLVEVATMKDFTSLCLHLTVECVDRYLRRRLVPRYRLQLLGIACMVICTRFISKEILTIREAVWLTDNTYKYEDLVRMMGEIVSALEGKIRVPTVVDYKEVLLTLVPVELRTQHLCSFLCELSLLHTSLSAYAPARLAAAALLLARLTHGQTQPWTTQLWDLTGFSYEDLIPCVLSLHKKCFHDDAPKDYRQVSLTAVKQRFEDKRYGEISQEEVLSYSQLCAALGVTQDSPDPPTFLSTGEIHAFLSSPSGRRTKRKRENSLQEDRGSFVTTPTAELSSQEETLLGSFLDWSLDCCSGYEGDQESEGEKEGDVTAPSGILDVTVVYLNPEQHCCQESSDEEACPEDKGPQDPQALALDTQIPATPGPKPLVRTSREPGKDVTTSGYSSVSTASPTSSVDGGLGALPQPTSVLSLDSDSHTQPCHHQARKSCLQCRPPSPPESSVPQQQVKRINLCIHSEEEDMNLGLVRL | failed
MTPRHQRDLSRRKLLAALAGTAVAVPAAAMGAPHALATVASDNGGAAPRAAGALPLTIVNRTGSFANSSVHLYIVGNEDGKQVRVTSEGTLAPISLADNGADGFTDYAIALSGSGETRLSLPYMSGRIYVALGDKLKLKAVADGNGNAALQYPAGWVESDPNYRVLHDCAEFTHNSAGMFCNTTMVDMFSVPLSIRLTGTKDQTTGTLRDGGRARVFAAVKSVPEFERLVVDDLRVIAPGHGLDAGIFAEDYFAPYIDEVWSTYTGKDLTVTTNAGAFTGRVRGDKLTFTGPASVSFSKPSTRDVFFCDGSLAAPNDGTTGPVAAVLGAGFNRSTLVNDSAQPTTDPAAFYGSALANHYAKAIHAATEDGKAYGFAFDDVADFASYIQDTAPTGINLTLTPF | failed
MVDNYEYQVGASLPPDAPSYVVRKADSDFYQALKAGKYCYVFNSRQMGKSSLKVRVMQRLVNEGVACSSIDVSGQGSKDNVTQEQWYTGIVSKIVKDLQIAKPIEFRRTWWRDRHDISPVQRFDEFIEDVLLSSIQRHIIIFVDEIDSTLSLGFASEDFFALIRSCYNKRAENPAYKRLTFALLGVATPGDLIQDKTRTPFNIGEAIELDGFKIHDIEPLAKGLAGKVENPQAVMQEVLAWTGGQPFLTQRVCELLGKALSIEKRDFRSVDENQIIELVKEIIHNQIIDNWEANDKQEHLKTIRDRLLISEEISVALLGLYQQILQQVEMTADSSFEQMRLRLTGLVVQQQGKLRVYNQIYRNVFDLSWVENELGKLRFYADKLRAWVESNYQDNTCLLWGEDLEKARVWADGRKLSDVDYRFLSASVEAELNQKVVKAETRQNQALQEEEKAKQRLTEVERKINIGGGILALFVVGAIVAAIGAISANIERQQAQVVTDLERSSADLLRLRGNVGLDNLVEAMRSVKQLKQLVKNGNQLKDYPTVSPILALHNTLEYNREINQLKDDRRVQKQVFSPDTKIVANISDDGTTKLLNLQTGTITTLKHDKKVNNVAFSPNGQIVATASDDGTAKLWNLQGGKIATFKHNKEVNDVAFSPDGKTVGTASWDTAKLWNLQGGEIATLQYDSLVQNIVFSPDGKNVAIASYDSDVKLWNLQGKEIATIIHNKMTKYLSVVNNLFFSPDGKVVATTSRRDATTKLWNLQGKEIATFKYYPDIGIKNSVFSPNGKVVAIYSDDKTVNLYNLQGNTIATLKHNDKVEDIVFSPDGNTVATVSSYVHDGTVNLWNLKGNIIGTFKHQGLFQDISRLEFSPDGQTIATALLDNTAHLWNLQGKKIAIFTHYSQVLNLAFSPDGRTITTASSDGTAKLWNLQGGNIRILKHNDQINNIVFSPDGKTVATTSYDGTAKLWNLQKGEIVTLKHDGVVNDAVFSPDGKTIATTTSSDKTVKLWNLQGQLIATLKHKYEPDKEVVFSPDSNIIATSDDTAKLWNLQGQLIATLTNEGGVREVIFNPDGKSVLTTSYENAKLWNLEGQEIATFKHKHLGEVVFSPDGHTVATASVYRDSDISGSVKLWNLKGEEIITLQHGSFSDVLFSPDGKTIATVSTLSNTAKLWNLQGREIATLTHDGWINHISFSPDGKTIGIRSGDKTVKLWNLRGQEIATLKHNSSTIVSDPIFSPDGKTIATVSLDRTVRLWTEVRDGSWQQFAEYQSRRVVFSPDNKLIAIEGNYFVQLRRVQSLDSLLARGCNDLKEYLASRPDLRKEICPDNK | failed
